Experimental data published in patent US20170137511A1 (CALYPSO BIOTECH, published 2017).
Each block holds one binder with its values, some of them ahead of it.

Experiments:
[1] = biological target: T1, recombinant human IL-15 (Prospec cat no. CYT230) (human, UniProt P40933 49-162); assay: ELISA, plate-bound human IL-15; printed as BC50 (half-maximal binding concentration)
Description: (§1) Maxisorp plates were coated with recombinant human IL-15 (Prospec cat no. CYT230) or Rhesus macaque IL-15 (MyBiosource cat. no. MBS948894) at 100 ng/well in carbonate coating buffer for 2 hours at 37° C. Since published sequences of Rhesus macaque and Cynomolgus monkey IL-15 are identical, such recombinant IL-15 protein was referred to as Macaque Monkey IL-15. Tested human IL-15 recombinant protein has a sequence identical to that provided in SEQ ID NO: 1 but with an additional methionine at the N-terminal position as usually done for expressing recombinant proteins in E. Coli. Tested recombinant Macaque Monkey IL-15 was produced in yeast and has a sequence identical to that provided in SEQ ID NO: 4 but with an additional N-terminal His tag.
(§2) The plate was then blocked with 2% normal goat serum for 30 min at 37° C. and washed 6 times with PBS-Tween (0.05% Tween-20 in PBS, v/v). Test antibodies were added to the plate in triplicate at various dilutions in PBS-Tween and the plate was incubated with gentle rocking at room temperature for 2 hours. The plate was then washed 6 times with PBS-Tween and an appropriate dilution of goat anti-human IgG antibody (Millipore cat. no. AP309P) conjugated to horseradish peroxidase (HRP) was added to the plate and left rocking at room temperature for 1 hour. The plate was then washed 6 times with PBS-Tween and incubated with TMB substrate. The reaction was stopped by the addition of 1M H₂SO₄ and read at 450 nm. Dose response curves of absorbance versus concentration were plotted and analyzed to determine half-maximal binding concentrations (BC₅₀) using the Graphpad Prism software. BC₅₀ values expressed as molarity were extrapolated from concentration in ng/ml using a 150 kDa molecular weight value for all antibodies.

[2] = biological target: T1, recombinant human IL-15 (Prospec cat …); assay: ELISA, plate-bound recombinant human IL-15 (100 ng/well), HRP goat anti-human IgG, absorbance at 450 nm
Description: as §1
The plate was then blocked with 2% normal goat serum for 30 min at 37° C. and washed 6 times with PBS-Tween (0.05% Tween-20 in PBS, v/v). […] The reaction was stopped by the addition of 1M H₂SO₄ and read at 450 nm. Dose response curves of absorbance versus concentration were plotted and analyzed to determine half-maximal binding concentrations (BC₅₀) using the Graphpad Prism software. BC₅₀ values expressed as molarity were extrapolated from concentration in ng/ml using a 150 kDa molecular weight value for all antibodies.

[3] = biological target: T2, recombinant Macaque Monkey IL-15 (MyBiosource cat. no. MBS948894) (Rhesus macaque / Cynomolgus monkey, UniProt P40221 49-162 (Chlorocebus aethiops entry)); assay: ELISA, plate-bound Macaque Monkey IL-15; printed as BC50 (half-maximal binding concentration)
T2 construct: Produced in yeast; also called Rhesus macaque IL-15; recombinant monkey IL-15; not shown: additional N-terminal His tag
T2 sequence (P40221 49-162): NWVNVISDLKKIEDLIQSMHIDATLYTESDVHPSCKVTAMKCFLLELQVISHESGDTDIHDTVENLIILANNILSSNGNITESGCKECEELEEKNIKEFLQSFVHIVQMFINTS
Description: as §1, §2

[4] = biological target: recombinant human IL-2 (R&D Systems cat. no. 202-IL-010) (human, UniProt P60568 21-153); assay: ELISA, plate-bound recombinant human IL-2 (100 ng/well), HRP goat anti-human IgG, absorbance at 450 nm
recombinant human IL-2 (R&D Systems cat. no. 202-IL-010), sequence (P60568 21-153 limits assumed): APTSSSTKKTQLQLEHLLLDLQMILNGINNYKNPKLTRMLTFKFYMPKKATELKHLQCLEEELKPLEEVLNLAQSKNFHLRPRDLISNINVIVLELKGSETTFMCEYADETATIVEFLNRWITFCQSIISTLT
Description: Maxisorp plates were coated with recombinant human IL-2 (R&D Systems cat. no. 202-IL-010) of SEQ ID NO: 38 at 100 ng/well in carbonate coating buffer for 2 hours at 37° C. The plate was then blocked with 2% normal goat serum for 30 min at 37° C. and washed 4 times with PBS-Tween (0.05% Tween-20 in PBS, v/v). Test antibodies or positive control biotinylated antibody (anti-IL-2 Novus Bio cat. no. NBP1-43491) were added to the plate in duplicate at 5 μg/ml in PBS-Tween and the plate was incubated with gentle rocking at room temperature for 2 hours. The plate was then washed 4 times with PBS-Tween and an appropriate dilution of goat anti-human IgG antibody (Millipore cat. no. AP309P) conjugated to horseradish peroxidase (HRP) for test antibodies, or streptavidin-HRP for positive control antibody, was added to the plate and left rocking at room temperature for 1 hour. The plate was then washed 4 times with PBS-Tween and incubated with TMB (3,3′,5,5′-tetramethylbenzidine) substrate. The reaction was stopped by the addition of 1 M H₂SO₄ and read at 450 nm.

[5] = biological target: T3, recombinant human IL-15 (R&D systems cat. no. 247-IL) (human, UniProt P40933 49-162); assay: cell-based or functional assay
T3 sequence (P40933 49-162 limits assumed): as the sequence (P40221 49-162) above, with H52L, T57A, D58S, I73S, I80V counted along it

[6] = biological target: T2, recombinant Macaque Monkey IL-15 …; assay: cell-based or functional assay
[7] = biological target: T4, recombinant rat IL-15 (Sigma cat. no. SRP4172) (rat, UniProt P97604 49-162); assay: ELISA, plate-bound recombinant rat IL-15 (100 ng/well), HRP goat anti-human IgG, absorbance at 450 nm
T4 sequence: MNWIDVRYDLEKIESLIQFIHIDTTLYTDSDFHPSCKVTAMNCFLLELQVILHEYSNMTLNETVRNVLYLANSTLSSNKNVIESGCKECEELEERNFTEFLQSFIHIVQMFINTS
Description: (§3) Maxisorp plates were coated with recombinant mouse IL-15 (R&D Systems cat. no. 447-ML) or rat IL-15 (Sigma cat. no. SRP4172) at 100 ng/well in carbonate coating buffer for 2 hours at 37° C. Tested IL-15 recombinant proteins have a sequence identical to that provided in SEQ ID NO: 2 (mouse IL-15) and SEQ ID NO: 3 (rat IL-15) but with an additional methionine at the N-terminal position as usually done for expressing recombinant proteins in E. Coli.
(§4) The plate was then blocked with 2% normal goat serum for 30 min at 37° C. and washed 6 times with PBS-Tween (0.05% Tween-20 in PBS, v/v). Test antibodies were added to the plate in triplicate at various dilutions in PBS-Tween and the plate was incubated with gentle rocking at room temperature for 2 hours. As positive controls, rabbit-anti-mouse IL-15 (Acris cat. no. AP01124PU-S) or rabbit anti-rat IL-15 (Biovision cat. no. 5172) antibodies were tested at the same concentrations. The plate was then washed 6 times with PBS-Tween and an appropriate dilution of HRP-conjugated goat anti-human IgG antibody (Millipore cat. no. AP309P) for humanized antibodies, or goat-anti-rabbit IgG antibody (Sigma cat. no. A 4416) for the positive controls was added and the plate was left rocking at room temperature for 1 hour. The plate was then washed 6 times with PBS-Tween and incubated with TMB substrate. The reaction was stopped by the addition of 1M H₂SO₄ and read at 450 nm. Dose response curves of absorbance versus concentration were plotted using the Graphpad Prism software.

[8] = biological target: T3, recombinant human IL-15 (R&D systems …); assay: cell-based or functional assay; remark: listed apart in the source
[9] = biological target: T5, recombinant mouse IL-15 (R&D Systems cat. no. 447-ML) (mouse, UniProt P48346 49-162); assay: ELISA, plate-bound recombinant mouse IL-15 (100 ng/well), HRP goat anti-human IgG, absorbance at 450 nm
T5 sequence: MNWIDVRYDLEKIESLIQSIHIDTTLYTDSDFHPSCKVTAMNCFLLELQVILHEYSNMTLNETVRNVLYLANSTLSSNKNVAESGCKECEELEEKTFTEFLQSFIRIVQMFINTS
Description: as §3, §4

[10] = biological target: T1, recombinant human IL-15 (Prospec cat …); assay: SPR (Biacore 3000), human IL-15 amine-coupled to the chip, antibody injected, 1:1 Langmuir fit
Description: Human IL-15 (Prospec cat no. CYT230) was immobilized onto a CMS chip (GE Healthcare) using standard amine coupling, and antibodies injected at various concentrations in 120 μl phosphate buffer saline with a flow rate of […]. Binding kinetics were analyzed on a Biacore 3000 apparatus (GE Healthcare) with a 300 seconds dissociation period. Reference signal and 0 nM antibody concentration signal were substracted and data fitted using a 1:1 (Langmuir) binding model.

[11] = biological target: T6, human IL-15 (preparation not stated) (human, UniProt P40933 49-162, limits assumed); assay: cell-based or functional assay
T6 sequence (P40933 49-162 limits assumed): as the sequence (P40221 49-162) above, with H52L, T57A, D58S, I73S, I80V counted along it

[12] = biological target: T6, human IL-15 (preparation not stated); assay: ELISA
[13] = biological target: T6, human IL-15 (preparation not stated); assay: ELISA; the weaker binders of the comparison

T1 sequence (P40933 other isoform, or with tags, fused parts or gaps): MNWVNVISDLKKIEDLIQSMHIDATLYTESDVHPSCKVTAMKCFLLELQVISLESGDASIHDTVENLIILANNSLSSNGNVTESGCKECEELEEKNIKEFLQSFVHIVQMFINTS

B1: huB-E29-1 (antibody, human IgG1, kappa)
heavy: not shown
light: DVVMTQSPLSLPVTLGQPASISCRSSQSIVDITGNTYLEWYQQRPGQSPRLLIYKVFNRFSGVPDRFSGSGSGTDFTLKISRVEAEDVGVYYCFQDSFVPYTFGQGTKLEIKRTVAAPSVFIFPPSDEQLKSGTASVVCLLNNFYPREAKVQWKVDNALQSGNSQESVTEQDSKDSTYSLSSTLTLSKADYEKHKVYACEVTHQGLSSPVTKSFNRGEC
notes: Humanized B-E29 variant; human IgG1 (G1m3) / kappa (Km3), produced in CHO cells; also called huVH1/huVL1; hVH1:hVK1
EC50 [1]: 1330 pM | EC50 (read off the curve) [2]: ~0.2 µg/mL | EC50 [3]: 487 pM

B3: 146B7 (comparative antibody 2) (antibody, V domains shown)
VH: EVQLVQSGAEVKKPGESLKISCKVSGYFFTTYWIGWVRQMPGKGLEYMGIIYPGDSDTRYSPSFQGQVTISADKSISTAYLQWSSLKASDTAMYYCARGGNWNCFDYWGQGTLVTVSS
VL: EIVLTQSPGTLSLSPGERATLSCRASQSVSSSYLAWYQQKPGQAPRLLIYGASRRATGIPDRFSGSGSGTDFTLTISRLEPEDFAVYYCQRYGSSHTFGQGTKLEIS
notes: Fully human antibody of the prior art (WO 03/017935), 'produced in the same expression system'; also called AMG 714; HuMaxIL-15
EC50 [1]: 8410 pM | IC50 in Kit 225 cells (nM), Human IL-15 [5]: 3.7 nM | IC50 in M-07e cells (nM), Human IL-15 [5]: 3.2 nM | IC50 in M07e cells for IL-15 trans presentation [8]: 630 pM | EC50 (read off the curve) [2]: ~0.8 µg/mL | Kd [10]: 36.7 pM | koff [10]: 5.26e-05 s⁻¹ | kon [10]: 1.44e+06 M⁻¹ s⁻¹ | EC50 [3]: 733 pM

B4: cVH1:hVK1 (antibody, human IgG1, kappa, V domains shown)
VH: EVRLMASGGGLVKPGGSLKLSCAASEFTFSNYAMSWVRQTPEKRLEWVATISRGGDYTYYPDSVKGRFTISRDNAKNTLYLQMSSLRSEDTALYYCARRVSMITGGWAMDYWGQGTSVTVSS
VL: DVVMTQSPLSLPVTLGQPASISCRSSQSIVDITGNTYLEWYQQRPGQSPRLLIYKVFNRFSGVPDRFSGSGSGTDFTLKISRVEAEDVGVYYCFQDSFVPYTFGQGTKLEIKR
notes: Human IgG1 (G1m3) / kappa (Km3)
binding result [12]: binds

B5: hVH1:hVK2 (antibody, human IgG1, kappa, V domains shown)
VH: EVRLMASGGGLVQPGGSLRLSCAASEFTFSNYAMSWVRQAPGKGLEWVATISRGGDYTYYPDSVKGRFTISRDNSKNTLYLQMNSLRAEDTAVYYCARRVSMITGGWAMDYWGQGTLVTVSS
VL: EVVMTQSPATLSLSPGERATLSCRSSQSIVDITGNTYLEWYQQKPGQAPRLLIYKVFNRFSGIPARFSGSGSGTDFTLTISSLEPEDFAVYYCFQDSFVPYTFGQGTKLEIKR
notes: as for B4
binding result [13]: binds

Second part, led by results:

binding result [4]: no binding (tested: 5 µg/ml) | EC50 [1]: 1470 pM | IC50 in Kit 225 cells (nM), Human IL-15 [5]: 0.083 nM | IC50 in M-07e cells (nM), Human IL-15 [5]: 0.017 nM | IC50 in Kit 225 cells (nM), Macaque Monkey IL-15 [6]: 0.112 nM | IC50 in M-07e cells (nM), Macaque Monkey IL-15 [6]: 0.23 nM | IC50 in M07e cells for IL-15 trans presentation [8]: 370 pM | Kd [10]: 9.4 pM | koff [10]: 1.07e-05 s⁻¹ | kon [10]: 1.15e+06 M⁻¹ s⁻¹ | EC50 [3]: 340 pM | half-maximal inhibitory concentration (IC50) of IL-15-induced prevention of apoptosis, type II RCD primary IEL cell line HAM RAC [11]: 2360 pM
B2: huB-E29-2 (antibody, human IgG1, kappa)
heavy: not shown
light: DVVMTQSPLSLPVTLGQPASISCRSSQSIVDITGNTYLEWYQQRPGQSPRLLIYKVFNRFSGVPDRFSGSGSGTDFTLKISRVEAEDVGVYYCFQDSFVPYTFGQGTKLEIKRTVAAPSVFIFPPSDEQLKSGTASVVCLLNNFYPREAKVQWKVDNALQSGNSQESVTEQDSKDSTYSLSSTLTLSKADYEKHKVYACEVTHQGLSSPVTKSFNRGEC
notes: Humanized B-E29 variant; human IgG1 (G1m3) / kappa (Km3), produced in CHO cells; also called huVH2/huVL1
binding result [7]: no binding (tested: log 3.7 (about 5000 ng/mL)) | binding result [9]: no binding (tested: log 3.7 (about 5000 ng/mL))

binding result [13]: binds
B6: cVH1:hVK2 (antibody, human IgG1, kappa, V domains shown)
VH: EVRLMASGGGLVKPGGSLKLSCAASEFTFSNYAMSWVRQTPEKRLEWVATISRGGDYTYYPDSVKGRFTISRDNAKNTLYLQMSSLRSEDTALYYCARRVSMITGGWAMDYWGQGTSVTVSS
VL: EVVMTQSPATLSLSPGERATLSCRSSQSIVDITGNTYLEWYQQKPGQAPRLLIYKVFNRFSGIPARFSGSGSGTDFTLTISSLEPEDFAVYYCFQDSFVPYTFGQGTKLEIKR
notes: as for B4

binding result [12]: binds
B7: hVH1:cVK1 (antibody, human IgG1, kappa, V domains shown)
VH: EVRLMASGGGLVQPGGSLRLSCAASEFTFSNYAMSWVRQAPGKGLEWVATISRGGDYTYYPDSVKGRFTISRDNSKNTLYLQMNSLRAEDTAVYYCARRVSMITGGWAMDYWGQGTLVTVSS
VL: DVLMTQTPLSLPVSLGDQASISCRSSQSIVDITGNTYLEWYLQKPGQSPKLLIYKVFNRFSGVPDRFSGSGSGTDFTLKISRVEAEDLGLYYCFQDSFVPYTFGGGTKLEIKR
notes: as for B4
